From the Human Domainome abundance scans (Beltran et al. 2025)
± gives the uncertainty stated by the source.

B1: Far upstream element-binding protein 3, residues 75 to 150; numbered along this chain, Q96I24 (parent)
chain: RTVITEEFKVPDKMVGFIIGRGGEQISRIQAESGCKIQIASESSGIPERPCVLTGTPESIEQAKRLLGQIVDRCRN
B2: Storkhead-box protein 2, residues 64 to 141; numbered along this chain, Q9P2F5 (parent)
chain: SPISQSQFIPLGEILCLAISAMNSARKPVTQEALMEHLTTCFPGVPTPSQEILRHTLNTLVRERKIYPTPDGYFIVTP

Variants of: B1
Assay: abundance fitness (aPCA) (normalised: wild type 0, dead -1); higher = more abundant; growth selection in yeast, the domain comes from the species named
Conditions: Homo sapiens

Variant	abundance fitness
E32G	-0.237 ± 0.026
A63I	-0.457 ± 0.087
P47M	-0.072 ± 0.038
K9A	-0.006 ± 0.031
S27D	-0.084 ± 0.075
S43F	-0.092 ± 0.1
V10R	-0.8 ± 0.035
T56I	-0.225 ± 0.059
V3K	-0.001 ± 0.05
M14W	-0.063 ± 0.032
G34I	-0.736 ± 0.2
R65W	-0.069 ± 0.029
G23E	-0.037 ± 0.032
K64H	-0.421 ± 0.058
S59T	-0.119 ± 0.046
R49V	-0.052 ± 0.03
I4T	-0.045 ± 0.041
T2I	0.038 ± 0.058
C74A	0.02 ± 0.029
R65T	-0.014 ± 0.047
S27A	-0.033 ± 0.034
I29F	-0.278 ± 0.054
G22C	-0.057 ± 0.041

Variant	abundance fitness
K36C	-0.116 ± 0.049
P57S	-0.109 ± 0.042
Q30F	-0.464 ± 0.084
R73G	0.054 ± 0.029
M14K	-0.345 ± 0.055
G22F	-0.1 ± 0.065
I18V	-0.085 ± 0.03
K9W	-0.053 ± 0.031
E61V	-0.046 ± 0.03
V71Q	-0.048 ± 0.044
F17D	0.081 ± 0.05
G22T	-0.09 ± 0.041
I19M	-0.062 ± 0.043
D72E	0.003 ± 0.033
P11G	-0.254 ± 0.031
S27C	-0.147 ± 0.054
K9Y	-0.114 ± 0.056
L66K	-0.066 ± 0.046
K64P	-1.14 ± 0.075
V15M	-0.073 ± 0.043
S43L	-0.102 ± 0.035
M14R	-0.423 ± 0.029
D72V	-0.093 ± 0.029

Variant	abundance fitness
D12R	-0.1 ± 0.028
G22S	-0.078 ± 0.034
V15L	-0.061 ± 0.03
V10D	-0.479 ± 0.05
K13W	-0.142 ± 0.032
A63E	-0.831 ± 0.047
K9S	0.025 ± 0.033
S27H	-0.117 ± 0.066
G16V	-0.172 ± 0.031
L53P	-1.32 ± 0.17
P57M	-0.111 ± 0.057
V15D	-0.324 ± 0.047
A63C	-0.03 ± 0.043
E6V	-0.051 ± 0.029
S44G	-0.021 ± 0.027
E24V	-0.03 ± 0.03
A63S	-0.401 ± 0.036
E61P	-0.553 ± 0.044
I60P	-1.1 ± 0.089
R21E	0.004 ± 0.035
R73E	0.043 ± 0.036
S33R	-0.827 ± 0.036
L67G	-0.864 ± 0.042

Variant	abundance fitness
G22Q	-0.085 ± 0.044
E32K	-0.054 ± 0.042
P11E	-0.109 ± 0.041
A63Q	-0.907 ± 0.063
S43N	-0.125 ± 0.098
I37Y	-0.799 ± 0.088
S59W	-0.999 ± 0.061
D12T	-0.073 ± 0.04
G23H	-0.077 ± 0.067
R75A	0.064 ± 0.032
V52C	-0.093 ± 0.051
T5E	-0.043 ± 0.04
G55M	-1.24 ± 0.1
T54W	-0.269 ± 0.051
I37S	-0.658 ± 0.037
R1T	0.028 ± 0.053
G22Y	-0.161 ± 0.063
E48N	-0.1 ± 0.06
K64I	-0.275 ± 0.064
F17Y	-0.019 ± 0.065
I70Q	-0.064 ± 0.043
R1W	-0.2 ± 0.037
I37D	-0.528 ± 0.051

Variant	abundance fitness
E6M	-0.103 ± 0.039
K13N	0.004 ± 0.057
T5K	-0.068 ± 0.052
I46N	0.031 ± 0.056
P50N	0.01 ± 0.052
K13V	-0.263 ± 0.03
G68S	-0.065 ± 0.035
Q62W	-0.102 ± 0.044
K9E	-0.044 ± 0.034
E7G	-0.083 ± 0.026
C35Q	-0.588 ± 0.074
R21L	-0.057 ± 0.031
M14G	-0.311 ± 0.026
C51G	-0.206 ± 0.028
A40N	-0.076 ± 0.057
I29E	-0.621 ± 0.039
L66G	-0.134 ± 0.027
G23I	-0.294 ± 0.063
S41I	-0.092 ± 0.07
I37R	-0.73 ± 0.03
P50E	-0.01 ± 0.031
E32R	-0.039 ± 0.026
C74I	-0.057 ± 0.071

Variant	abundance fitness
S33I	-0.358 ± 0.088
T56L	-0.138 ± 0.031
T54K	-0.033 ± 0.051
S33A	-0.138 ± 0.034
E7H	-0.002 ± 0.05
E6T	-0.06 ± 0.039
R73C	-0.157 ± 0.05
R49W	-0.271 ± 0.034
A63V	-0.31 ± 0.031
E48L	-0.068 ± 0.031
I60Y	-1 ± 0.12
E42A	-0.039 ± 0.037
K64F	-0.801 ± 0.079
E7C	-0.135 ± 0.037
I26P	-0.628 ± 0.045
Q30W	-0.487 ± 0.038
R73V	-0.037 ± 0.033
G55A	-0.855 ± 0.04
V71R	-0.151 ± 0.026
C51F	-0.009 ± 0.061
R28N	-0.125 ± 0.069
Q62K	-0.019 ± 0.043
E61I	-0.105 ± 0.055

Variant	abundance fitness
I18Q	-0.234 ± 0.04
E7I	-0.048 ± 0.064
E58H	-0.226 ± 0.087
F17P	-0.095 ± 0.047
P57W	-0.073 ± 0.04
G23R	-0.056 ± 0.025
G16Q	-0.027 ± 0.039
A31Q	0.003 ± 0.038
K13M	-0.207 ± 0.042
G55D	-0.905 ± 0.077
G68C	-0.066 ± 0.048
K36L	-0.057 ± 0.035
K9N	-0.109 ± 0.063
C35K	-0.608 ± 0.054
N76W	-0.092 ± 0.056
G55S	-0.827 ± 0.045
T56K	-0.166 ± 0.04
I4A	-0.122 ± 0.032
E24T	0.008 ± 0.038
F17C	-0.074 ± 0.046

Variants of: B2
Assay: as above
Conditions: Homo sapiens

Variant	abundance fitness
S1A	-0.395 ± 0.083
S1C	-0.178 ± 0.067
S1D	-0.027 ± 0.19
S1E	-0.581 ± 0.24
S1F	-0.092 ± 0.084
S1G	-0.263 ± 0.054
S1H	-0.103 ± 0.2
S1K	-0.717 ± 0.15
S1L	-0.207 ± 0.065
